Reference: article PMC7329128

Tests used:
Assay in all cases: flow cytometry on cells
[1] = target: soluble HCMV glycoprotein trimer gH/gL/gO-sfGFP, strain TB40/E; settings: 1/3 dilution of medium containing gH/gL/gO-sfGFP, read off a plot
[2] = target: membrane-anchored HCMV trimer (full-length gH, gL-FLAG, gO-8his), strain Merlin, on Expi293F cells, Q6SW67;F5HCH8; settings: read at 100 nM soluble PDGFR-Fc (highest concentration); parent: est. 0.98; read off a plot
[3] = target: membrane-anchored HCMV trimer (full-length gH, gL-FLAG, gO-8his), strain TB40/E, on Expi293F cells; settings: fitted curve read at 100 nM soluble PDGFR-Fc (right end of the x axis); parent: est. 1.2; read off a plot
[4] = + 100 nM PDGF competitor, parent: est. 0.33
[5] = w/o competitor, parent: est. 1.0

myc-tagged human PDGFRα (wild type) on Expi293F cells (from UniProt P16234-1) V242T
ratio to parent [1, 4]: 0.84 | ratio to parent [1, 5]: 0.83

soluble PDGFRα-Fc (wild type, redesigned fusion to human IgG1 Fc) (from UniProt P16234-1) V242K
ratio to parent [2]: 1 | ratio to parent [3]: 1.1

soluble PDGFRα-Fc (wild type, redesigned fusion to human IgG1 Fc) (from UniProt P16234-1) Y206S
ratio to parent [2]: 0.45 | ratio to parent [3]: 0.76

myc-tagged human PDGFRα (wild type) on Expi293F cells (from UniProt P16234-1) L137Q
ratio to parent [1, 4]: 0.71 | ratio to parent [1, 5]: 0.9

myc-tagged human PDGFRα (wild type) on Expi293F cells (from UniProt P16234-1) V242K
ratio to parent [1, 4]: 0.94 | ratio to parent [1, 5]: 0.9

myc-tagged human PDGFRα (wild type) on Expi293F cells (from UniProt P16234-1) L137K
ratio to parent [1, 4]: 0.85 | ratio to parent [1, 5]: 0.82

myc-tagged human PDGFRα (wild type) on Expi293F cells (from UniProt P16234-1) Y206S
ratio to parent [1, 4]: 0.82 | ratio to parent [1, 5]: 0.85
